The record followed here is PMC6880778.

Test [1] concerns the target ecto-PfGAMA (N25-G715) (P. falciparum). In words: SPR; Biacore X100, CM5 chip; PfGAMA as ligand, analyte in single-cycle kinetics at 0.16, 0.8, 4, 20 and 100 nM; global fit to a 1:1 binding model. (In SPR one partner is held on a chip, and binding of the other changes the refractive index at the surface.)
For test [2], the target named is recombinant ecto-PfGAMA (N25-G715) (P. falciparum). Description: SPR; Biacore X100, CM5 chip; recombinant PfGAMA as ligand, PfMSP10 protein as analyte; single-cycle kinetics at 0.16, 0.8, 4, 20 and 100 nM; global fitting in a 1:1 binding model.
Test [3] has the same target.

Take “PfMSP10 R1 (D29-N188) (domain or fragment)”: in test [1], the dissociation constant (Kd) (in general, a measure of binding affinity in units of concentration) came to 648 nM; the off-rate constant (koff) (in general, the first-order rate constant of dissociation) amounted to 0.000355 s⁻¹; the kon – broadly, the second-order rate constant of association – was determined as 548 M⁻¹ s⁻¹.

Turning to “ecto-PfMSP10 (D29-Q507) (domain or fragment)”, in test [1], the Kd is 99.7 nM, the koff stood at 0.0015 s⁻¹ and the on-rate constant (kon) worked out at 15000 M⁻¹ s⁻¹.

B1: recombinant ecto-PfMSP10 (D29-Q507) (domain or fragment)
chain: DDIKNTSQKKITYDKYNKNKENMNNEKNDNKDNKDNIYNDNINNDNINNDNINNEDEYKFLSMKHYKDSLSNKLNNENDHMNYLIRKRKDNTQGSQHFNENIENNENVENNENIENNENNENIENIENNENNENNENIENNENNENNENSSIMNSESYNNIINSNEHNEEQIKKKEEDLIEAFFPFILKKLDNESLSLDNKYDDYYNLPNDHNDTHKENSSDHNLLGYKLGNNLKSYLIEENDVSQKKTDDINESASSDSENIQEILSTDSNTSHLKERKNQKAPPGEHKPEVKNALLNSQVASPKGEDEKKSQPQHPLVNSGDQLQHPKEIDENAEKIRRTLLKESRDIKNTTAIIDETVYKFEQLIMKGRYYATAVRNFVIFKVNYICEYSKCGPNSRCYIVEKDKEQCRCRPNYIVDMSVNYFKCIPMKDMNCSKNNGGCDVNAECTIVEGAVKCQCSHLYFGDGVFCVKNSQTKQ
B1: the equilibrium dissociation constant (Kd) in test [2] was 100 nM.

B2: PfMSP10 region 1 (R1, D29-N188) (domain or fragment)
chain: DDIKNTSQKKITYDKYNKNKENMNNEKNDNKDNKDNIYNDNINNDNINNDNINNEDEYKFLSMKHYKDSLSNKLNNENDHMNYLIRKRKDNTQGSQHFNENIENNENVENNENIENNENNENIENIENNENNENNENIENNENNENNENSSIMNSESYNN
For the molecule B2, the equilibrium dissociation constant (Kd) in test [2] is 650 nM. Besides, the GIA activity (growth inhibition of cultured P. falciparum parasites) of 20 mg/ml rabbit antibodies raised against PfMSP10 R1 in test [3] is 11%.
